# Assay results from the RNAGym collection of RNA variant scans (doi:10.7554/elife.80360).
# B1: Hairpin Ribozyme (parent)
# chain: GUCCUCUUUCACGUGCGCGUGAAAGAGAGAAGUGAACCAGAGAAACACACGUUGUGGUAUAUUACCUGGUA
# Variants of: B1
# Assay: self-cleavage, relative activity (ratio to wild type); higher = more cleavage; co-transcriptional
row,Variant,self-cleavage
1,GUCCUCUUUCACGUGCGCGUGAAAGAGAGAAGUGAACCAGAAAAACACACGUUGUGGCAUAUUACCUGGUA [G42A U58C],0.21
2,GUCCUCUUUCACGUGCGCGUGAAAGAGACAAGUGAACCAGAGAAACACACGUUGUGGUACAUUACCUGGUA [G29C U60C],0.164
3,GUCCUCUUUCACGUGCGCGUGAAAGAGAGAACUGAACCAGAGAAACACACGUUGUGGUAUAUUACCUUGUA [G32C G68U],0.135
4,GUCCUCUUUCACGUGCGCGUGAAAGAGAGAAGUGAACCACAGAAACACACGUCGUGGUAUAUUACCUGGUA [G40C U53C],0.168
5,GUCCUCUUUUACGUGCGCGUGAAAGAGAGAAGUGAACCAGAGAAACACACGGUGUGGUAUAUUACCUGGUA [C10U U52G],0.564
6,GUCCUCUUUCACGUGCGCGUGAAAGAGAGAAGUGAACCAGAGAAACUCACGUUGUGGUAUAAUACCUGGUA [A47U U62A],0.114
7,GUCCUCUUUCACGAGCGCGUGAAAGAGAGAAGUGAACCAGAGAAACACCCGUUGUGGUAUAUUACCUGGUA [U14A A49C],0.117
8,GUCUUCUUUCACGUGCGCGUGAAAGAGAGAAGUGAACCAGAGAAACACACGUUGUGGUAUAUUACCUGGUG [C4U A71G],0.426
9,GUCCUCUGUCACGUGCGCGUGAAAGAGAGAAGUGAACCAGAGAAACACACGUUGUGGGAUAUUACCUGGUA [U8G U58G],0.635
10,GUCCUCUUUCACGUGCGCAUGAAAGAGAGAAGUGAACCAGAGAAACACACGUUGUGGUAUAUUACCUGGUU [G19A A71U],0.648
11,UUCCUCUUUCACGUGCGCGGGAAAGAGAGAAGUGAACCAGAGAAACACACGUUGUGGUAUAUUACCUGGUA [G1U U20G],0.0885
12,GUCCUCUUUCACGUCCGCGAGAAAGAGAGAAGUGAACCAGAGAAACACACGUUGUGGUAUAUUACCUGGUA [G15C U20A],0.963
13,GUCUUCUUUCACGUGCGCGUGAAAGAGAGAAGUGAACCAGAGGAACACACGUUGUGGUAUAUUACCUGGUA [C4U A43G],0.141
14,GUGCUCUUUCACGUGCGCGUGAAAGAGAGAAGUGAACCAGAGAAACACACGUUGUGGGAUAUUACCUGGUA [C3G U58G],0.0994
15,GUCCUCUUUCACGUGCGCGUGAUAGAGAGAAGUGAACCAGAGAAACACACGUUGUGGUAUUUUACCUGGUA [A23U A61U],0.0982
16,GUCCUCUUUCACGUGCGCGUGAAAGAGAGAAGUGAACCCGAGAAACACACGUUGUGGUAUAUUAUCUGGUA [A39C C65U],0.401
17,GUCCUCUUUCACGUGCGCGUGAAAGAGAGAAGUGAACCAGACAAACAGACGUUGUGGUAUAUUACCUGGUA [G42C C48G],0.113
18,GUCCCCUUUCACGUGCGCGUGAAAGAGAGAAGUGAACCAGAGACACACACGUUGUGGUAUAUUACCUGGUA [U5C A44C],0.0386
19,GACCUCUUUCACGUGCGCGUGAAAGAGAGCAGUGAACCAGAGAAACACACGUUGUGGUAUAUUACCUGGUA [U2A A30C],0.162
20,GUCCUCUUUCACGUGCGCGUGAAAGAGAGAAGUGGACCAGAGAAACACACGUUGUGGUAUGUUACCUGGUA [A35G A61G],0.185
21,GUCCUCUUCCACGUGCGCGUGAAAGAGAGACGUGAACCAGAGAAACACACGUUGUGGUAUAUUACCUGGUA [U9C A31C],0.184
22,GUUCUCUUUCACGUGCGCGUGAAAGAGAGAAGUGAACCAGAGAAACACACGGUGUGGUAUAUUACCUGGUA [C3U U52G],0.446
23,GUACUCUUUCACGUGCGCGUGAAAGAGAGAAGUGAACCAGAGAAACACACGUUGUGGUAUAUUACGUGGUA [C3A C66G],0.234
24,GUCCUCUUUCACGUGCGCGUGAAAGAGAGAAGCGAACCAGAGAAACACACGUUGUGGUAAAUUACCUGGUA [U33C U60A],0.14
25,GUCCUCUUUCACGUGCGCGUGAAAGAGAGAUGUGAACCAGAGAAACACACGUUGUGGUAUACUACCUGGUA [A31U U62C],0.147
26,GUCCUCUUUCACGUGCGCGUGAAAGAAAGAAGUGAACCAGAGCAACACACGUUGUGGUAUAUUACCUGGUA [G27A A43C],0.0674

row,Variant,self-cleavage
1,GUCCUCUUUCACGUGCGCGUGAAAGCGAGAAGUGAACCCGAGAAACACACGUUGUGGUAUAUUACCUGGUA [A26C A39C],0.47
2,UUCCUCUUUCACGUGCGCGUGAAACAGAGAAGUGAACCAGAGAAACACACGUUGUGGUAUAUUACCUGGUA [G1U G25C],0.0754
3,GUCCUCUUUCACGUGCGCGUUAAAGAGAGUAGUGAACCAGAGAAACACACGUUGUGGUAUAUUACCUGGUA [G21U A30U],0.142
4,GUCCUCUUUCACGUGCGCGUAAAAGAGAGAAGUGAACCAGAGAAACACACGGUGUGGUAUAUUACCUGGUA [G21A U52G],0.784
5,GUCCUCUUUCACGUGCGCGUGAAAGAGAGUAGUGAACCAGAGAAACACACGUUGUGGUAUAUUACCUGGUC [A30U A71C],0.299
6,GUCCUCUUUCAGGUGCGCGUGAAAGAGAGAAGUGAACCAGAGAGACACACGUUGUGGUAUAUUACCUGGUA [C12G A44G],0.156
7,GUCCUCUUUCACGUGCGCGUGAAAGAGAGAAGUAAACCAGAGAAACACACGUUGUGGUAGAUUACCUGGUA [G34A U60G],1
8,GUCUUCUUUCACGUGCGCGUCAAAGAGAGAAGUGAACCAGAGAAACACACGUUGUGGUAUAUUACCUGGUA [C4U G21C],0.328
9,GUCCUCUUUCACGUGCGCGUGAAUGAGAGAAGUGAACCAGAGAAACACACGUUGUGGUAUAUUACCAGGUA [A24U U67A],0.0716
10,GUCCUCUUUCAAGUGCGCGUGAAAGAGAGAAGUGAACCAGAGAAACACACGUUGUGGUAUAUUACCUGGGA [C12A U70G],0.673
11,GUCCUCUUGCACGUGCGCGUGAAAGAGAGAACUGAACCAGAGAAACACACGUUGUGGUAUAUUACCUGGUA [U9G G32C],0.0561
12,GUCCUCGUUCACGUGCGCGUGAAAGAGAGAAGUGAACCAGAGAGACACACGUUGUGGUAUAUUACCUGGUA [U7G A44G],0.16
13,GUCCUCCUUCACGUGCGCGUGUAAGAGAGAAGUGAACCAGAGAAACACACGUUGUGGUAUAUUACCUGGUA [U7C A22U],0.642
14,GUACCCUUUCACGUGCGCGUGAAAGAGAGAAGUGAACCAGAGAAACACACGUUGUGGUAUAUUACCUGGUA [C3A U5C],0.247
15,GUCCUCUUCCACGUGCGCGUGAAAGAGAAAAGUGAACCAGAGAAACACACGUUGUGGUAUAUUACCUGGUA [U9C G29A],0.118
16,GUCCUCUUUCACGUUCGCGUGAAAGAGAGAAGUGAACCAAAGAAACACACGUUGUGGUAUAUUACCUGGUA [G15U G40A],0.335
17,GUCCUCUUUCACGUGCGCGUGAAAGAGAGAAGUGAACCCGAGAAACACACGUUGUAGUAUAUUACCUGGUA [A39C G56A],0.193
18,GUCCUCUUUCACGUGCGCGUGAAAGAGAGAAGUGAACCAGAGAAUCACACGUUGUUGUAUAUUACCUGGUA [A45U G56U],0.208
19,GUCCUCUUUCACGCGCGCGUGAAAGAGAGAAGUGACCCAGAGAAACACACGUUGUGGUAUAUUACCUGGUA [U14C A36C],0.476
20,GUCCUCUUUCACGUGCGCGUGAAAGAGAGAAGUGAACUAGACAAACACACGUUGUGGUAUAUUACCUGGUA [C38U G42C],0.177
21,GUCCGCUUUCACGUGCGCGUGAAAGAGAGAAGUGAACCAGAGAAACACACUUUGUGGUAUAUUACCUGGUA [U5G G51U],0.534
22,GUGCUCUUUCACGUGCGCGUGAAAGAGAGAAGUGAACCAGAGUAACACACGUUGUGGUAUAUUACCUGGUA [C3G A43U],0.111
23,GUCCUCUUUCACGUGCGCGUGAAAGAGAGAAGUGAACCAGAGAAACACACGUCGUGGUAUAUUACCUGCUA [U53C G69C],0.43
24,GUCCUCUUUCACGUGCGCGUCAAAGAGAGAAGUGAACCAGAGAACCACACGUUGUGGUAUAUUACCUGGUA [G21C A45C],0.276
25,GUCCUCUUUCACGUGCGCGUGAAAGAGAGGAGUGAACUAGAGAAACACACGUUGUGGUAUAUUACCUGGUA [A30G C38U],0.21
26,GUCCUCUUUCACGUGCGCGUGAAAGAGAGAGGUGAACCAGAGAAACACACGCUGUGGUAUAUUACCUGGUA [A31G U52C],0.508

row,Variant,self-cleavage
1,GUCCUCUUUCACGUGCGCGUGAAAGAGAUAAGUGAACCAGAGAAGCACACGUUGUGGUAUAUUACCUGGUA [G29U A45G],0.136
2,GUCCUCUUUCACGUGCGCGUGAAAGAGGGAAGUGAGCCAGAGAAACACACGUUGUGGUAUAUUACCUGGUA [A28G A36G],1.16
3,GUCCUCUUUCACGUGCGCGUGAAAGAGAGAAGUGGACCAGAGAAACACACGUUGUGGUAUAUUACCUGGUC [A35G A71C],1.16
4,GACCUCUUUCACGUGCGCGUGAAAGAGAGAAGUGAACCAGAGAGACACACGUUGUGGUAUAUUACCUGGUA [U2A A44G],0.119
5,GUCCUCUUUCACGUGCGCGUGAAAGAGAGAAGUGAGCCAGAGAAACACACGUCGUGGUAUAUUACCUGGUA [A36G U53C],1.08
6,GUCCUCUUUCACGUGCGCGUGAAAGAGGGAAGUGAACCAGAGAAACAGACGUUGUGGUAUAUUACCUGGUA [A28G C48G],0.0684
7,GUCCUCUUUCACGUGCGCGUGAAAGAGAGAACUGAACCAGAGAAACACACGUUGUGGUAUACUACCUGGUA [G32C U62C],0.2
8,GUCGUCUUUCACGUGCGCGUGAAAGAGAGAAGUGAACAAGAGAAACACACGUUGUGGUAUAUUACCUGGUA [C4G C38A],0.0909
9,GUCCUCUUUCACGUGCACGUGAAAGAGAGUAGUGAACCAGAGAAACACACGUUGUGGUAUAUUACCUGGUA [G17A A30U],0.0442
10,GUCCUCUUUCACGUGCGCGUGAAAGAGAGAAGUGAACCAGAGACUCACACGUUGUGGUAUAUUACCUGGUA [A44C A45U],0.0709
11,GUCCUCUUUCACGUGCGCGUGAAAGAGAGAAGUGAACCAGGGAAACACACGUUGUGGUAUAAUACCUGGUA [A41G U62A],0.0775
12,GUCCUCUUUCACGUGCGCGUGAAAGAGAGAAGUGAACCAGAGAAACAUACGUUCUGGUAUAUUACCUGGUA [C48U G54C],0.129
13,GUCCUCUUUCACGUGCGCGUGUAAGAGAGAAGUGAACCAGAGAAACACAGGUUGUGGUAUAUUACCUGGUA [A22U C50G],0.223
14,GUCCUCUUUCACGUGCGCGUGAAAGAGAGAAGUGAACCAGAGAAACACACGUUGUGGUAUAGUACCGGGUA [U62G U67G],0.127
15,GUCCUCUUUGACGUGCGCGUGAAAGAGAGAAGUGAACCAGAGAAACACACGUUGUGGUAUAGUACCUGGUA [C10G U62G],0.138
16,GUCCUCUUUCACGUGCGCGUGAAAGAGAGAAGUGAGCCAGAGAAACACACAUUGUGGUAUAUUACCUGGUA [A36G G51A],0.943
17,GUCCUCUUUCACGUGCGCGUGAAAGAGAGAAGUGAACCAGAGAAACACACGUUGUGAUAUAUUACCUGGCA [G57A U70C],0.274
18,GUCCUCUUUCACGUGCGCGUGAAAGAGAGAAGUGAACGAGAGAAACACACGUUGUGGUAUAGUACCUGGUA [C38G U62G],0.0875
19,GCCCUCUUUCACGUGCGCGUGCAAGAGAGAAGUGAACCAGAGAAACACACGUUGUGGUAUAUUACCUGGUA [U2C A22C],0.161
20,GUCCUCUUUCACGUGCUCGUGAAAGAGAGAAGUGAACCAGAGAAACACACGUUGUGGUAUAUUACAUGGUA [G17U C66A],0.233
21,GUCCUCUUUCACGUGCGCGGGAAAGAGAGACGUGAACCAGAGAAACACACGUUGUGGUAUAUUACCUGGUA [U20G A31C],0.164
22,GUCCUCUCUCAUGUGCGCGUGAAAGAGAGAAGUGAACCAGAGAAACACACGUUGUGGUAUAUUACCUGGUA [U8C C12U],0.566
23,GUCCUCUUUCACGUGCCCGUGAAAGAGAGAAGUGAACCAGAGAAACACACGUUGUGGUCUAUUACCUGGUA [G17C A59C],0.162
24,UUCCUCUUUCACGUGCGCGUGAAAGAGAGAAGUGAACCAGAGAAACACACUUUGUGGUAUAUUACCUGGUA [G1U G51U],0.133
